The record followed here is US20040048377A1 (published 2004).

The labels stand for the following.
B2: mouse Grg4 (other, UniProt Q62441 1-773, looked up)
chain: MIRDLSKMYPQTRHPAPHQPAQPFKFTISESCDRIKEEFQFLQAQYHSLKLECEKLASEKTEMQRHYVMYYEMSYGLNIEMHKQAEIVKRLNAICAQVIPFLSQEHQQQVVQAVERAKQVTMAELNAIIGQQLQAQHLSHGHGLPVPLTPHPSGLQPPAIPPIGSSAGLLALSSALGGQSHLPIKDEKKHHDNDHQRDRDSIKSSSVSPSASFRGSEKHRNSTDYSSESKKQKTEEKEIAARYDSDGEKSDDNLVVDVSNEDPSSPRGSPAHSPRENGLDKTRLLKKDAPISPASVASSSSTPSSKSKELSLNEKSTTPVSKSNTPTPRTDAPTPGSNSTPGLRPVPGKPPGVDPLASSLRTPMAVPCPYPTPFGIVPHAGMNGELTSPGAAYAGLHNISPQMSAAAAAAAAAAAYGRSPVVGFDPHHHMRVPAIPPNLTGIPGGKPAYSFHVSADGQMQPVPFPPDALIGPGIPRHARQINTLNHGEVVCAVTISNPTRHVYTGGKGCVKVWDISHPGNKSPVSQLDCLNRDNYIRSCRLLPDGRTLIVGGEASTLSIWDLAAPTPRIKAELTSSAPACYALAISPDSKVCFSCCSDGNIAVWDLHNQTLVRQFQGHTDGASCIDISNDGTKLWTGGLDNTVRSWDLREGRQLQQHDFTSQIFSLGYCPTGEWLAVGMENSNVEVLHVTKPDKYQLHLHESCVLSLKFAHCGKWFVSTGKDNLLNAWRTPYGASIFQSKESSSVLSCDISVDDKYIVTGSGDKKATVYEVIY
notes: 35S-labelled, made in TNT rabbit reticulocyte lysate for the immuno-precipitation; expressed from a vector in COS-7 cells in the reporter assays; also called mGrg4

In the experiment “mouse Grg4” the target is B2. Description: immuno-precipitation, 35S-labelled Grg4, Nkx protein on antibody-proteinA-sepharose. As for the experimental part: (§1) Immuno-precipitation (IP) assays using rabbit Nkx2.2 (Ericson et al., 1997) and Nkx6.1 antibodies (Jensen et al., 1996) were performed as described by Current protocols 2nd ed. ³⁵S-labelled mGrg4 was synthesized using the TNT coupled rabbit reticulocyte lysate. Electric mobility shift assays were performed as described (Jorgensen et al., 1999). Briefly, the isolated homeodomains of Nkx6.1, Nkx6.2, Nkx2.2 and Nkx2.9HD were synthesized using the TNT coupled rabbit reticulocyte lysate and tested for their binding specificity in vitro using ³²P-labelled double stranded DNA oligonucleotides containing defined Nkx6.1 (Jorgensen et al., 1999) or Nkx2.1 binding sites (Damante et al., 1996).
(§2) An immuno-precipitation assay was then used to test if mammalian Gro/TLE family members could also bind to Nkx proteins, and if the TN domain is required for this interaction. […] Carboxy-terminal directed antibodies that recognise both full-length proteins as well as truncated variants lacking the TN domain were used (Ericson et al., 1997; Jensen et al., 1996). […]
(§3) Deletion of the TN domain in Nkx2.2 and Nkx6.1 reduced the interaction with Grg4 (9-fold for Nkx2.2ATN and 5-fold for Nkx6.1ΔTN, compared to the full-length proteins). […] No significant interaction was detected between Grg4 and antibody-proteinA-sepharose complexes.

The target in experiment [1] is T1, Nkx2.2ΔTN (Nkx2.2 with the TN domain deleted, Δaa 2-26) (chick).
T1 construct: range 1-1;range 27-C-terminus; Deletion construct, immobilised on antibody-proteinA-sepharose in the immuno-precipitation; also called cNkx2.2^?TN; NKx2.2^?TN
Described as above. How it is done: as §1, §2, §3

B1: Nkx6.1 (full-length, rNkx6.1) (other, rat, UniProt O35762 1-365, looked up)
chain: MLAVGAMEGPRQSAFLLSSPPLAALHSMAEMKTPLYPAAYPPLPTGPPSSSSSSSSSSSPSPPLGAHNPGGLKPPAAGGLSSLGSPPQQLSAATPHGINDILSRPSMPVASGAALPSASPSGSSSSSSSSASATSASAAAAAAAAAAAAAASSPAGLLAGLPRFSSLSPPPPPPGLYFSPSAAAVAAVGRYPKPLAELPGRTPIFWPGVMQSPPWRDARLACTPHQGSILLDKDGKRKHTRPTFSGQQIFALEKTFEQTKYLAGPERARLAYSLGMTESQVKVWFQNRRTKWRKKHAAEMATAKKKQDSETERLKGTSENEEDDDDYNKPLDPNSDDEKITQLLKKHKSSGGSLLLHASEAEGSS
notes: mature; Full-length protein made in TNT rabbit reticulocyte lysate; 35S-labelled in the GST co-precipitation, immobilised on antibody-proteinA-sepharose in the immuno-precipitation
Consider B1, for which the binding result with mouse Grg4 was “binds”. As to B2, the “fold reduction of the interaction with Grg4 compared to the full-length protein” value in experiment [1] was found to be 9 fold.
